Test results: patent publication US20200270325A1 (Merck Sharp & Dohme, published 2020)
Numbered stars: 1 amine (or outer) side, 2 acyl side, 3 side chain; on linkers, the order of the positions; unused ones are H or OH. Square brackets hold non-standard residues; d marks the D form. Side chains are listed from the residue outwards. Ends that are not written are not given here. * marks the point of attachment. Phe(4-CH2NH2) = NCc1ccc(C[C@H](N)C(=O)O)cc1; C18 diacid = O=C(O)CCCCCCCCCCCCCCCCC(=O)*; C16 diacid = O=C(O)CCCCCCCCCCCCCCC(=O)*; γGlu = O=C(O)[C@H](CCC(=O)[*:2])N[*:1]; Met(O2) = CS(=O)(=O)CC[C@H](N)C(=O)O; αMeD = C[C@](N)(CC(=O)O)C(=O)O; αMeS = C[C@](N)(CO)C(=O)O; AEEA = NCCOCCOCC(=O)O; Aib = CC(C)(N)C(=O)O; C16 = lipid (C16)

B1: TP605 (peptide)
peptide: H[Aib]QGTFTSDYSKYLDARAAQDFVQWL[Met(O2)][Phe(4-CH2NH2)]([AEEA-AEEA-γGlu-C20‑OH])T-NH2
B2: TP612 (peptide)
peptide: H[Aib]QGTFTSDYSKYL[αMeD]ARAAK([AEEA-AEEA-γGlu-C18 diacid])[αMeD]FVQWL[Met(O2)][αMeD]T-NH2
modifications: N-terminus assumed
SMILES: CC(C)C[C@H](NC(=O)[C@H](Cc1c[nH]c2ccccc12)NC(=O)[C@H](CCC(N)=O)NC(=O)[C@@H](NC(=O)[C@H](Cc1ccccc1)NC(=O)[C@](C)(CC(=O)O)NC(=O)[C@H](CCCCNC(=O)COCCOCCNC(=O)COCCOCCNC(=O)CC[C@H](NC(=O)CCCCCCCCCCCCCCCCC(=O)O)C(=O)O)NC(=O)[C@H](C)NC(=O)[C@H](C)NC(=O)[C@H](CCCNC(=N)N)NC(=O)[C@H](C)NC(=O)[C@](C)(CC(=O)O)NC(=O)[C@H](CC(C)C)NC(=O)[C@H](Cc1ccc(O)cc1)NC(=O)[C@H](CCCCN)NC(=O)[C@H](CO)NC(=O)[C@H](Cc1ccc(O)cc1)NC(=O)[C@H](CC(=O)O)NC(=O)[C@H](CO)NC(=O)[C@@H](NC(=O)[C@H](Cc1ccccc1)NC(=O)[C@@H](NC(=O)CNC(=O)[C@H](CCC(N)=O)NC(=O)C(C)(C)NC(=O)[C@@H](N)Cc1c[nH]cn1)[C@@H](C)O)[C@@H](C)O)C(C)C)C(=O)N[C@@H](CCS(C)(=O)=O)C(=O)N[C@@](C)(CC(=O)O)C(=O)N[C@H](C(N)=O)[C@@H](C)O
B3: TP614 (peptide)
peptide: H[αMeS]QGTFTSDYSKYLDARAAK([AEEA-AEEA-γGlu-C16 diacid])DFVQWL[Met(O2)][αMeD]T-NH2
modifications: N-terminus assumed
SMILES: CC(C)C[C@H](NC(=O)[C@H](Cc1ccc(O)cc1)NC(=O)[C@H](CCCCN)NC(=O)[C@H](CO)NC(=O)[C@H](Cc1ccc(O)cc1)NC(=O)[C@H](CC(=O)O)NC(=O)[C@H](CO)NC(=O)[C@@H](NC(=O)[C@H](Cc1ccccc1)NC(=O)[C@@H](NC(=O)CNC(=O)[C@H](CCC(N)=O)NC(=O)[C@](C)(CO)NC(=O)[C@@H](N)Cc1c[nH]cn1)[C@@H](C)O)[C@@H](C)O)C(=O)N[C@@H](CC(=O)O)C(=O)N[C@@H](C)C(=O)N[C@@H](CCCNC(=N)N)C(=O)N[C@@H](C)C(=O)N[C@@H](C)C(=O)N[C@@H](CCCCNC(=O)COCCOCCNC(=O)COCCOCCNC(=O)CC[C@H](NC(=O)CCCCCCCCCCCCCCC(=O)O)C(=O)O)C(=O)N[C@@H](CC(=O)O)C(=O)N[C@@H](Cc1ccccc1)C(=O)N[C@H](C(=O)N[C@@H](CCC(N)=O)C(=O)N[C@@H](Cc1c[nH]c2ccccc12)C(=O)N[C@@H](CC(C)C)C(=O)N[C@@H](CCS(C)(=O)=O)C(=O)N[C@@](C)(CC(=O)O)C(=O)N[C@H](C(N)=O)[C@@H](C)O)C(C)C
B4: TP611 (peptide)
peptide: HXQGTFTSDYSKYLDARAAXXFVQWLXXT
modifications: Aib (U) at 2; K(PEG2PEG2γEC18-OH) at 20; αMD at 21; L-methionine sulphone (2) at 27; αMD at 28; C-terminal amide
B5: TP603 (peptide)
peptide: H[Aib]QGTFTSDYSKYLDARAAQDFVQWL[Met(O2)]K([AEEA-AEEA-γGlu-C20‑OH])T-NH2
B6: TP583 (peptide)
peptide: H[Aib]QGTFTSDYSKYLDARAAQDFV[Phe(4-CH2NH2)]([AEEA-AEEA-γGlu-C18 diacid])WLLDT-NH2
modifications: N-terminus assumed
SMILES: CC(C)C[C@H](NC(=O)[C@H](Cc1ccc(O)cc1)NC(=O)[C@H](CCCCN)NC(=O)[C@H](CO)NC(=O)[C@H](Cc1ccc(O)cc1)NC(=O)[C@H](CC(=O)O)NC(=O)[C@H](CO)NC(=O)[C@@H](NC(=O)[C@H](Cc1ccccc1)NC(=O)[C@@H](NC(=O)CNC(=O)[C@H](CCC(N)=O)NC(=O)C(C)(C)NC(=O)[C@@H](N)Cc1c[nH]cn1)[C@@H](C)O)[C@@H](C)O)C(=O)N[C@@H](CC(=O)O)C(=O)N[C@@H](C)C(=O)N[C@@H](CCCNC(=N)N)C(=O)N[C@@H](C)C(=O)N[C@@H](C)C(=O)N[C@@H](CCC(N)=O)C(=O)N[C@@H](CC(=O)O)C(=O)N[C@@H](Cc1ccccc1)C(=O)N[C@H](C(=O)N[C@@H](Cc1ccc(CNC(=O)COCCOCCNC(=O)COCCOCCNC(=O)CC[C@H](NC(=O)CCCCCCCCCCCCCCCCC(=O)O)C(=O)O)cc1)C(=O)N[C@@H](Cc1c[nH]c2ccccc12)C(=O)N[C@@H](CC(C)C)C(=O)N[C@@H](CC(C)C)C(=O)N[C@@H](CC(=O)O)C(=O)N[C@H](C(N)=O)[C@@H](C)O)C(C)C
B7: TP602 (peptide)
peptide: H[Aib]QGTFTSDYSKYLDARAAQDFVQWL[Met(O2)]K([AEEA-AEEA-γGlu-C18 diacid])T-NH2
modifications: N-terminus assumed
SMILES: CC(C)C[C@H](NC(=O)[C@H](Cc1ccc(O)cc1)NC(=O)[C@H](CCCCN)NC(=O)[C@H](CO)NC(=O)[C@H](Cc1ccc(O)cc1)NC(=O)[C@H](CC(=O)O)NC(=O)[C@H](CO)NC(=O)[C@@H](NC(=O)[C@H](Cc1ccccc1)NC(=O)[C@@H](NC(=O)CNC(=O)[C@H](CCC(N)=O)NC(=O)C(C)(C)NC(=O)[C@@H](N)Cc1c[nH]cn1)[C@@H](C)O)[C@@H](C)O)C(=O)N[C@@H](CC(=O)O)C(=O)N[C@@H](C)C(=O)N[C@@H](CCCNC(=N)N)C(=O)N[C@@H](C)C(=O)N[C@@H](C)C(=O)N[C@@H](CCC(N)=O)C(=O)N[C@@H](CC(=O)O)C(=O)N[C@@H](Cc1ccccc1)C(=O)N[C@H](C(=O)N[C@@H](CCC(N)=O)C(=O)N[C@@H](Cc1c[nH]c2ccccc12)C(=O)N[C@@H](CC(C)C)C(=O)N[C@@H](CCS(C)(=O)=O)C(=O)N[C@@H](CCCCNC(=O)COCCOCCNC(=O)COCCOCCNC(=O)CC[C@H](NC(=O)CCCCCCCCCCCCCCCCC(=O)O)C(=O)O)C(=O)N[C@H](C(N)=O)[C@@H](C)O)C(C)C
B8: TP607 (peptide)
peptide: H[Aib]QGTFTSDK([γGlu-γGlu-C16])SKYLDARAAQDFVK([AEEA-AEEA-γGlu-C16 diacid])WL[Met(O2)][αMeD]T-NH2
B9: TP606 (peptide)
peptide: H[Aib]QGTFTSDK([γGlu-γGlu-C16])SKYLDARAAK([AEEA-AEEA-γGlu-C16 diacid])DFVQWL[Met(O2)]DT-NH2
B10: TP613 (peptide)
peptide: H[Aib]QGTFTSDYSKYLDERAAK([AEEA-AEEA-γGlu-C18 diacid])DFVQWL[Met(O2)][αMeD]T-NH2
modifications: N-terminus assumed
SMILES: CC(C)C[C@H](NC(=O)[C@H](Cc1ccc(O)cc1)NC(=O)[C@H](CCCCN)NC(=O)[C@H](CO)NC(=O)[C@H](Cc1ccc(O)cc1)NC(=O)[C@H](CC(=O)O)NC(=O)[C@H](CO)NC(=O)[C@@H](NC(=O)[C@H](Cc1ccccc1)NC(=O)[C@@H](NC(=O)CNC(=O)[C@H](CCC(N)=O)NC(=O)C(C)(C)NC(=O)[C@@H](N)Cc1c[nH]cn1)[C@@H](C)O)[C@@H](C)O)C(=O)N[C@@H](CC(=O)O)C(=O)N[C@@H](CCC(=O)O)C(=O)N[C@@H](CCCNC(=N)N)C(=O)N[C@@H](C)C(=O)N[C@@H](C)C(=O)N[C@@H](CCCCNC(=O)COCCOCCNC(=O)COCCOCCNC(=O)CC[C@H](NC(=O)CCCCCCCCCCCCCCCCC(=O)O)C(=O)O)C(=O)N[C@@H](CC(=O)O)C(=O)N[C@@H](Cc1ccccc1)C(=O)N[C@H](C(=O)N[C@@H](CCC(N)=O)C(=O)N[C@@H](Cc1c[nH]c2ccccc12)C(=O)N[C@@H](CC(C)C)C(=O)N[C@@H](CCS(C)(=O)=O)C(=O)N[C@@](C)(CC(=O)O)C(=O)N[C@H](C(N)=O)[C@@H](C)O)C(C)C
B11: TP610 (peptide)
peptide: H[Aib]QGTFTSDYSKYL[αMeD]ARAAK([AEEA-AEEA-γGlu-C18 diacid])DFVQWL[Met(O2)][αMeD]T-NH2
modifications: N-terminus assumed
SMILES: CC(C)C[C@H](NC(=O)[C@H](Cc1c[nH]c2ccccc12)NC(=O)[C@H](CCC(N)=O)NC(=O)[C@@H](NC(=O)[C@H](Cc1ccccc1)NC(=O)[C@H](CC(=O)O)NC(=O)[C@H](CCCCNC(=O)COCCOCCNC(=O)COCCOCCNC(=O)CC[C@H](NC(=O)CCCCCCCCCCCCCCCCC(=O)O)C(=O)O)NC(=O)[C@H](C)NC(=O)[C@H](C)NC(=O)[C@H](CCCNC(=N)N)NC(=O)[C@H](C)NC(=O)[C@](C)(CC(=O)O)NC(=O)[C@H](CC(C)C)NC(=O)[C@H](Cc1ccc(O)cc1)NC(=O)[C@H](CCCCN)NC(=O)[C@H](CO)NC(=O)[C@H](Cc1ccc(O)cc1)NC(=O)[C@H](CC(=O)O)NC(=O)[C@H](CO)NC(=O)[C@@H](NC(=O)[C@H](Cc1ccccc1)NC(=O)[C@@H](NC(=O)CNC(=O)[C@H](CCC(N)=O)NC(=O)C(C)(C)NC(=O)[C@@H](N)Cc1c[nH]cn1)[C@@H](C)O)[C@@H](C)O)C(C)C)C(=O)N[C@@H](CCS(C)(=O)=O)C(=O)N[C@@](C)(CC(=O)O)C(=O)N[C@H](C(N)=O)[C@@H](C)O

Assays:
[1] = biological target: human GLP-1 receptor (GLP1R) (human, UniProt P43220 24-463); experiment: cell-based or functional assay
[2] = biological target: human Glucagon receptor (GCGR) (human, UniProt P47871 26-477); experiment: cell-based or functional assay
human Glucagon receptor (GCGR), sequence (P47871 26-477): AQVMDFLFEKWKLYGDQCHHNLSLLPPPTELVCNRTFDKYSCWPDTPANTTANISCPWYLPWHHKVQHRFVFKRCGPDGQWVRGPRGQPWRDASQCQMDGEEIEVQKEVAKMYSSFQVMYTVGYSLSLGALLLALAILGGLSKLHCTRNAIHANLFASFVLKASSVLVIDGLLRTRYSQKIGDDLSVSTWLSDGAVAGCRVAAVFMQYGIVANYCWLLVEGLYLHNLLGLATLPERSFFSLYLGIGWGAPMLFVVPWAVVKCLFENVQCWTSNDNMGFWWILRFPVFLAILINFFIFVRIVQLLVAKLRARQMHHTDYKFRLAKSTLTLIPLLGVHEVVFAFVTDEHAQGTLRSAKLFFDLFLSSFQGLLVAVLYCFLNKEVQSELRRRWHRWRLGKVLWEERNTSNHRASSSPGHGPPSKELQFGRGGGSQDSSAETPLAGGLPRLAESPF

Row | Binder | GLP1R EC50 human [1] [nM] | GCGR EC50 human [2] [nM]
1 | B1 | 1.98 | 3.75
2 | B2 | 4.95 | 2.04
3 | B3 | 1.4 | 0.86
4 | B4 | > 5 | 0.2
5 | B5 | 1.17 | 1.88
6 | B6 | 0.74 | 6.37
7 | B7 | 0.36 | 2.17
8 | B8 | 1.06 | 0.57
9 | B9 | 1.84 | 1.01
10 | B10 | 3.34 | > 5
11 | B11 | > 5 | 0.19
